Test results published in paper PMC10902354, “Deficiency in PHD2-mediated hydroxylation of HIF2α underlies Pacak-Zhuang syndrome” (Communications Biology, 2024).
Entries after “also recorded” stand apart in the source; their conditions may differ. Square brackets hold non-standard residues; d marks the D form. Hyp = O=C(O)[C@@H]1C[C@@H](O)CN1

What was measured:
[1] = target: T1, PHD2 (prolyl-hydroxylase domain, residues 181–426) (Homo sapiens, UniProt Q9GZT9); test: Aggregation of PHD2 by HIF2α-CODD peptides in MST experiments (MST time traces); format: physicochemical; conditions: peptide dilution series with PHD2, room temperature
T1 construct: encodes for His6-PHD2 (prolyl-hydroxylase domain, residues 181–426); His6 (N, cleaved yes); made in house; host or cells: E. coli BL21(DE3)
Description: MST measurements were taken using a Monolith NT.115 (Nanotemper Technologies) at room temperature using standard MST capillaries (Nanotemper Technologies). A 2x stock of PHD2-647 was created by diluting PHD2-647 from a 10 µM stock to 50 nM with MST Buffer (50 mM Tris–HCl pH 7.5, 1 mM NOG, 10 µM FeSO4, 5 mg/ml BSA). For each HIFα-CODD peptide, ~1 mg dry weight of peptide was dissolved in 200 µl of 50 mM Tris–HCl pH 8.0 and concentrations were measured using UV absorbance at 280 nm for most peptides and BCA assay (Thermo Scientific) for Y532C and Y532H peptides using known concentrations of the WT HIF2α-CODD peptide to create a standard curve. The UV absorbance extinction coefficients for all HIF1α-CODD and HIF2α-CODD peptides used in this study is 1490 M^−1 cm^−1 except for HIF2α-CODD D539Y (2980 M^−1 cm^−1), HIF2α-CODD G537W (6990 M^−1 cm^−1) and HIF2α-CODD Y532C and Y532H which were not analyzed via absorbance at 280 nm due to the lack of any Tyrosine or Tryptophan residues in the peptides. For each experiment, 16 different concentrations of 15 µl peptide solution were created by 2-fold serial dilution of the peptide stock in 50 mM Tris–HCl pH 8.0. Each of the 16 peptide solutions was then mixed with an equal volume (15 µl) of 2× PHD2-647 solution resulting in a final 1× concentration of PHD2-647 at 25 nM. […] MST measurements were taken at 20% fluorescence excitation LED power and 40% (medium) infrared laser power. For each MST time trace initial fluorescence (pre-infrared laser activation) was recorded for 5 s, infrared laser on time was 20 s, and fluorescence post-infrared laser deactivation was recorded for 3 s. MST data was analyzed using the M.O. Affinity Analysis software (Nanotemper Technologies) and the 1:1 Kd binding model was fit to experimental data. […]
(also on this page, place not known: Relative Fluorescence Relative Fluorescence -10 30 Relative Fluorescence -10 30 Relative Fluorescence -10 30 Relative Fluorescence -10 30 Relative Fluorescence aggrega?on, (f) curves HIF2α-CODD)

[2] = target: T1, PHD2 (prolyl-hydroxylase domain, residues 181–426); test: Microscale thermophoresis (MST) binding of HIFα-CODD peptides to the catalytic domain of PHD2; conditions: for Binding to PHD2 (in words): 25 nM PHD2-647, with NOG, room temperature; for Kd (MST-determined PHD2/HIFα-CODD complex dissociation constant): 25 nM Alexa 647-labeled PHD2, Tris–HCl with NOG (1 mM NOG, 10 µM FeSO4, 5 mg/ml BSA in 2x MST Buffer pH 7.5), peptide in Tris pH 8.0, room temperature, 10 min incubation, 1:1 Kd model, triplicate measurements, highest concentration omitted for Y532H and P531A (aggregation)
Description: To determine if there is a direct effect of HIF2α mutations on PHD2 binding, we devised a quantitative method for determining the dissociation constant (Kd) of the HIF2α-CODD peptides and the catalytic domain of PHD2 using microscale thermophoresis (MST)[13],[14] in the presence of the PHD inhibitor n-oxalylglycine (NOG) to inhibit reaction turnover.
PHD2 was purified via a previously described but modified procedure[4],[30]. […] Cells were grown to an OD600 of 0.8 at 37 °C and expression of His6-PHD2 was induced with a final concentration of 0.5 mM IPTG. Cells were grown for an additional 3 h post-induction at 37 °C and harvested via centrifugation. Cell pellets were either used immediately for purification or stored at −80 °C for later use. Cell pellets were resuspended in Lysis Buffer (50 mM Tris–HCl pH 7.9, 500 mM NaCl, 5 mM Imidazole) containing 1x SigmaFast protease inhibitor cocktail (Sigma-Aldrich) and lysed with 3 passes through an Emulsiflex-C3 cell disruptor (Avestin) at 20-30 kPSI. […] Clarified lysates were applied to a 2 ml Ni-NTA (Thermo Scientific) column pre-equilibrated with Lysis Buffer. The beads were washed with 10 ml Lysis buffer and 2 × 30 ml of Wash Buffer (50 mM Tris–HCl pH 7.9, 500 mM NaCl, 30 mM Imidazole). His6-PHD2 was eluted by applying 10 ml Elution Buffer (50 mM Tris–HCl pH 7.9, 500 mM NaCl, 1 M Imidazole) to the column. Ni-NTA purified His6-PHD2 was dialyzed using a 10 kDa cut-off dialysis membrane against 2 L of Dialysis Buffer (50 mM Tris–HCl pH 7.5) for 4 h at 4 °C. […] Dialysis and thrombin cleavage were allowed to continue overnight at 4 °C. Thrombin-cleaved PHD2 was collected and applied to a 2 ml Ni-NTA column pre-equilibrated with Dialysis Buffer to remove uncleaved protein and cleaved His6 tags. The flow-through was collected and the beads were washed with 10 ml of Dialysis Buffer supplemented with 5 mM imidazole. The 5 mM imidazole eluate was pooled with the flow through and concentrated with an Amicon 10 kDa cut-off centrifugal concentrator (Millipore) to a volume of ~600 µl. The concentrated PHD2 was then applied to a Superdex 75 Increase 10/300 GL column (Cytiva) equilibrated with Dialysis Buffer or Labeling Buffer (50 mM HEPES pH 7.5, 150 mM NaCl) depending on the intended use of the sample. Eluted fractions containing PHD2 were collected and pooled. For the His6-PHD2 used in the indirect hydroxylation assay, no thrombin was added during dialysis steps therefore the His6-tag was not removed and the subsequent passage of the sample through Ni-NTA beads to remove His6-tags was not performed. Otherwise, the purification protocol for His6-PHD2 is the same as thrombin-cleaved PHD2. All purification steps were analyzed by SDS–PAGE and the Superdex 75 Increase chromatogram was used to assess size and aggregation, see Supplementary Fig. 5 for a representative purification assessment.
Labeling was conducted at room temperature for 1 h in the dark. Excess dye was then removed first by the passage of the sample through a PD-10 desalting column containing Sephadex G-25 resin (Cytiva) equilibrated with Dialysis Buffer and then any remaining excess dye was removed via repeated 10-fold dilution in Dialysis Buffer and subsequent concentration in an Amicon 10 kDa cut off centrifugal filter until the dye could no longer be detected in the concentrator flow through by Absorbance at 650 nm.
MST measurements were taken using a Monolith NT.115 (Nanotemper Technologies) at room temperature using standard MST capillaries (Nanotemper Technologies). […] For each HIFα-CODD peptide, ~1 mg dry weight of peptide was dissolved in 200 µl of 50 mM Tris–HCl pH 8.0 and concentrations were measured using UV absorbance at 280 nm for most peptides and BCA assay (Thermo Scientific) for Y532C and Y532H peptides using known concentrations of the WT HIF2α-CODD peptide to create a standard curve.

pVHL = conditions: prolyl-hydroxylated HIF2α peptides; cited from earlier work
Excerpt: (§1) Pacak-Zhuang syndrome is a pseudohypoxic disease resulting from the inappropriate stabilization of HIF2α under normoxic conditions caused by gain-of-function missense mutations in the CODD region of HIF2α. These missense mutations stabilize HIF2α by ultimately inhibiting proteasome-mediated destruction of HIF2α[2],[6],[21]. Previously, we hypothesized that the mutations in the HIF2α-CODD region disrupted the pVHL/HIF2α interface. This appeared to be true for most Class 1 mutants examined to date.

PHD = conditions: cited from earlier work
Excerpt: as §1

[3] = target: Alexa 647 labeled PHD2 (catalytic / prolyl-hydroxylase domain, residues 181-426) (human) (UniProt Q9GZT9); test: MST; 25 nM Alexa 647 labeled PHD2, unlabeled peptide in 16 two-fold dilutions; room temperature; MST Buffer 50 mM Tris-HCl pH 7.5, 1 mM NOG, 10 µM FeSO4, 5 mg/ml BSA mixed 1:1 with peptide in 50 mM Tris-HCl pH 8.0; 1:1 Kd model; triplicate
Sequence of Alexa 647 labeled PHD2 (catalytic / prolyl-hydroxylase domain, residues 181-426) (human) (Q9GZT9 181-426): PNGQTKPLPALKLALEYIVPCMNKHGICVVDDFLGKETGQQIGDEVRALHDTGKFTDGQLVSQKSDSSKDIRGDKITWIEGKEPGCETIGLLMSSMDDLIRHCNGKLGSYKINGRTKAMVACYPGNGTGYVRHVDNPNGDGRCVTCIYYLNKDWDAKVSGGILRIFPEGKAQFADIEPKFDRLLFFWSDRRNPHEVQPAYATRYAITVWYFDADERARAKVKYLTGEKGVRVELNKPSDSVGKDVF

T1 sequence (Q9GZT9 181-426): as above

Molecule | Kd (MST-determined PHD2/HIFα-CODD complex dissociation constant) ([2]; MST) | Aggregation of PHD2 in MST experiments [1] | Binding to PHD2 (in words) ([2]; MST) | also measured
CC[C@H](C)[C@H](NC(=O)[C@H](Cc1ccc(O)cc1)NC(=O)[C@@H]1CCCN1C(=O)[C@H](C)NC(=O)[C@H](CC(C)C)NC(=O)[C@@H](NC(=O)[C@H](CCC(=O)O)NC(=O)[C@H](CC(C)C)NC(=O)[C@H](CC(=O)O)NC(=O)[C@H](CC(C)C)NC(=O)[C@H](CCC(=O)O)NC(C)=O)[C@@H](C)O)C(=O)N1CCC[C@H]1C(=O)N[C@@H](CCSC)C(=O)N[C@@H](CC(=O)O)C(=O)NCC(=O)N[C@@H](CCC(=O)O)C(=O)N[C@@H](CC(=O)O)C(=O)N[C@@H](Cc1ccccc1)C(=O)N[C@@H](CCC(N)=O)C(=O)N[C@@H](CC(C)C)C(N)=O [HIF2α WT] | – | no aggrega?on | showing binding | Kd ([2]; read-out: Kd (MST-determined PHD2/HIFα-CODD complex dissociation constant)): 34 ± 2 µM
HIF2α WT-OH: synthetically hydroxylated WT HIF2α-CODD-OH peptide, negative control (Ac-ELDLETLA[Hyp]YIPMDGEDFQL-NH2; SMILES CC[C@H](C)[C@H](NC(=O)[C@H](Cc1ccc(O)cc1)NC(=O)[C@@H]1C[C@@H](O)CN1C(=O)[C@H](C)NC(=O)[C@H](CC(C)C)NC(=O)[C@@H](NC(=O)[C@H](CCC(=O)O)NC(=O)[C@H](CC(C)C)NC(=O)[C@H](CC(=O)O)NC(=O)[C@H](CC(C)C)NC(=O)[C@H](CCC(=O)O)NC(C)=O)[C@@H](C)O)C(=O)N1CCC[C@H]1C(=O)N[C@@H](CCSC)C(=O)N[C@@H](CC(=O)O)C(=O)NCC(=O)N[C@@H](CCC(=O)O)C(=O)N[C@@H](CC(=O)O)C(=O)N[C@@H](Cc1ccccc1)C(=O)N[C@@H](CCC(N)=O)C(=O)N[C@@H](CC(C)C)C(N)=O) | No Binding | no ag grega?on | did not bind to PHD2 | Binding to PHD2 (in words) ([2]; MST, listed as WT-OH HIF2α-CODD): no
HIF2α-CODD WT peptide (from UniProt Q99814 523-542) | – | – | – | Kd [3]: 34 µM

Second part, led by results:

Kd (MST-determined PHD2/HIFα-CODD complex dissociation constant) ([2]; MST) | Molecule | Aggregation of PHD2 in MST experiments [1] | Binding to PHD2 (in words) ([2]; MST) | also measured
No binding | HIF2α A530V: Class 1 mutant HIF2α-CODD peptide (Ac-ELDLETLVPYIPMDGEDFQL-NH2) | – | – | Binding affinity for pVHL (in words) (pVHL): no effect on pVHL binding; PHD-mediated hydroxylation (in words) (PHD): appeared to decrease PHD-mediated hydroxylation; PHD2 affinity / Kd compared with another peptide (in words) ([2]; MST, with NOG): significant effect on PHD2 binding affinity; also recorded: more detrimental to the interaction than A530T; Kd (Fit Results, Fit Model Kd) ([2]; MST, target WT-PHD2(181-426), TargetConcentration 2.5e-8, ligand HIF2a-CODD peptide, MST-Power Medium, Excitation-Power 20 Nano - RED, hot region 19 to 20, unit of Kd not printed (doses of the same sheet are in M), Fig. 1c source data): 0.03648
No binding^a | HIF2α P531A: Class 1 mutant HIF2α-CODD peptide (Ac-ELDLETLAAYIPMDGEDFQL-NH2) | some evidence of aggrega?on at the highest concentra?on | – | –
